{"source": "paper PMC5703890", "about": "“Involvement of cecropin B in the formation of the Aedes aegypti mosquito cuticle”", "molecules": {"B1": {"name": "nucleotide replacement 3 ((A/C)A to TA) (dsDNA)", "DNA 1": "TCGAAATGTTGGTATCCCGG", "DNA 2": "CCGGGATACCAACATTTCGA"}, "B2": {"name": "nucleotide replacement 2 (GG to TA) (dsDNA)", "DNA 1": "TCGAAATGTTTAAATCCCGG", "DNA 2": "CCGGGATTTAAACATTTCGA"}, "B3": {"name": "nucleotide replacement 4 ((A/C)A to CG) (dsDNA)", "DNA 1": "TCGAAATGTTGGCGTCCCGG", "DNA 2": "CCGGGACGCCAACATTTCGA"}, "B4": {"name": "nucleotide replacement 1 (TT to CC) (dsDNA)", "DNA 1": "TCGAAATGCCGGAATCCCGG", "DNA 2": "CCGGGATTCCGGCATTTCGA"}, "B5": {"name": "AaPPO 3-Cu B2 oligo (TTGGAA) (dsDNA)", "DNA 1": "GAGTATCGGTACTTGGAAGATTTTG", "DNA 2": "CAAAATCTTCCAAGTACCGATACTC"}, "B6": {"name": "AaPPO 3-Cu A1 oligo (TTGGCA) (dsDNA)", "DNA 1": "CATGCACCATTGGCACTGGCATTTA", "DNA 2": "TAAATGCCAGTGCCAATGGTGCATG"}, "B7": {"name": "AaPPO 3-Cu B3 oligo (TTGGCA) (dsDNA)", "DNA 1": "GTTCTATCGTTGGCACGGAATGATC", "DNA 2": "GATCATTCCGTGCCAACGATAGAAC"}, "B8": {"name": "AaPPO 3-5' end-1-2 oligo (TTGGAA) (dsDNA)", "DNA 1": "GTTCGAAATGTTGGAATCCCGGATC", "DNA 2": "GATCCGGGATTCCAACATTTCGAAC"}}, "data": [{"biological_target": "T1, Aacec B (cecropin B) peptide (Aedes aegypti)", "T1 chain": "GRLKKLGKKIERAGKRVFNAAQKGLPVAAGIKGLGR", "assay": "EMSA; EMSA: 6% native polyacrylamide gel, LightShift chemiluminescent kit; buffer, salt, pH and temperature not given in the material (cited to earlier work)", "conditions": "tags: none stated for EMSA; conjugated to beads for pull-down; label: biotin; blunt", "values": [{"molecule": "B1", "binding result": "no binding"}, {"molecule": "B2", "binding result": "no binding"}, {"molecule": "B3", "binding result": "no binding"}, {"molecule": "B4", "binding result": "no binding"}]}, {"system": "T2, Aacec B (cecropin B) peptide (Aedes aegypti)", "T2 sequence": "T1 chain", "assay": "pull-down", "conditions": "not given", "values": [{"molecule": "TGACGTGACAACGGCAATGCGTGATCCTGTGTTCTATCGTTGGCACGGAATGATCGATGGCTTGT (double strand) [Cu B3 fragment]", "binding": "binds"}, {"molecule": "ATAACGAGAAATGATTTGGCTGTGCATATAGTAGAAAAGTTCACCACGGCGATCTTTCTTAGCAATTTCCGGTGGCGCCCCAGCAGGATACACTAAATGCCAGTGCCAATGGTGCATGTTGACTCCGATGTCCTCACGGAAGTATGCCAT (double strand) [Cu A fragment]", "binding": "binds"}, {"molecule": "AACAAGCCATCGATCATTCCGTGCCAACGATAGAACACAGGATCACGCATTGCCGTTGTCACGTCACCCATTACTCCAAAATCTTCCAAGTACCGATACTCAGGATCGTGAATGTAGGCCAAAAAATCATGTCCAAAGTTATGCAAACTCCCATACAACCTCCTGTTGACGGAAAGCGTGGAAGCTTCAACCAAGTCACCTAAAAT (double strand) [Cu B fragment]", "binding": "binds"}, {"molecule": "GTTAGCTGGCGATTTGCAGAGCAGGTTCACGAGTGGCGCGGAGGTCGAAATTCCGGTTCGAAATGTTGGAATCCCGGATCTTGCCTTTGCGGAG (double strand) [5' end-1-2 fragment]", "binding": "binds"}, {"molecule": "GCCTACATTCACGATCCTGAGTATCGGTACTTGGAAGATTTTGGAGTAATGGG (double strand) [Cu B2 fragment]", "binding": "binds"}, {"molecule": "ATGGCATACTTCCGTGAGGACATCGGAGTCAACATGCACCATTGGCACTGGCATTTAGT (double strand) [Cu A1 fragment]", "binding": "binds"}, {"molecule": "CTCCGCAAAGGCAAGATCCGGGATTCCAACATTTCGAACCGGAATTTCGACCTCCGCGCCACTCGTGAACCTGCTCTGCAAATCGCCAGCTAACGGACGATAACGATCACTCAAATACTCGTCCGGAATTATGAGCGATGTTTTACCATCGTCCTTTGGCATAAACGATGGCTCCAGAGGGCGTTGCAGAAGCGCTTGGAAAGATTTACTCTCAGCCATCTTTTAACAACAAAACAATGCGTTTCCGTACGATAGCTATCGATTGGAGATTGG (double strand) [5' end-1 fragment]", "binding": "binds"}]}, {"biological_target": "T1, Aacec B (cecropin B) peptide", "assay": "EMSA; 1 ng peptide; EMSA: 6% native polyacrylamide gel, LightShift chemiluminescent kit; buffer, salt, pH and temperature not given in the material (cited to earlier work)", "conditions": "tags: none stated for EMSA; conjugated to beads for pull-down; label: biotin end label; blunt", "values": [{"molecule": "B5", "binding result": "binds"}, {"molecule": "B6", "binding result": "binds"}, {"molecule": "B7", "binding result": "binds"}, {"molecule": "B8", "binding result": "binds"}]}]}
